Key:
[1] = molecular target: c1d1_N386D displayed on yeast (Saccharomyces cerevisiae); experiment: yeast surface display; Fab titration, flow cytometry
[2] = molecular target: c1d1_v2 displayed on yeast (Saccharomyces cerevisiae); experiment: as above
[3] = molecular target: c1d1_b10disulf displayed on yeast (Saccharomyces cerevisiae); experiment: as above
eOD_L260F_N276D = experiment: method not given
eOD_N276D_N463D [4] = experiment: method not given
eOD_N276D = experiment: method not given
eOD_L260F = experiment: method not given
[5] = molecular target: wild-type core GP120 (soluble, mammalian-expressed) (HIV, HxB2 strain) (UniProt P04578); experiment: method not restated; rounded form of 3.9 nM of Table 1
eOD_N276D_N463D [6] = experiment: method not given; protein from 293 cells
c1d1_N386D [7] = experiment: method not restated
c2d1_b10disulf = experiment: SPR; IgG captured, OD variant as analyte
[8] = molecular target: ODml(N386) (Human immunodeficiency virus type 1 group M subtype B (isolate HXB2) (HIV-1)) (UniProt P04578); experiment: SPR; IgG captured, OD variant as analyte
c1d1_b10disulf = experiment: ITC
c1d1_N386D [9] = experiment: ITC
c1d1_N386D [10] = experiment: SPR, kinetics fitting
c1d1_N386D [11] = experiment: SPR and ITC
[12] = molecular target: wild-type core GP120 (soluble, mammalian-expressed) (HIV, HxB2 strain) (UniProt P04578); experiment: SPR; IgG captured by anti-human IgG, gp120 as analyte
eOD_T257S_S375W = experiment: method not given
eOD_T257S_L260F_S375W = experiment: method not given
c1d1_N386D [13] = experiment: SPR

b12 Fab
Kd [1]: 21 nM | Kd [2]: 11 nM

VRC01 Fab
Kd [1]: > 50 nM | Kd [3]: > 50 nM | Kd [2]: > 50 nM

germline VRC01 IgG (antibody)
Kd (eOD_L260F_N276D): 149000 nM | Kd (eOD_N276D_N463D [4]): 380000 nM | Kd (eOD_N276D): 640000 nM | Kd (eOD_L260F): > 500000 nM

VRC01 IgG (mature VRC01) (antibody)
Kd [5]: 4 nM | Kd (eOD_N276D_N463D [6]): 4 nM | Kd (c1d1_N386D [7]): 80 nM | fold weaker affinity than core gp120 (c1d1_N386D [7]): > 10 fold | Kd (c2d1_b10disulf): 289 nM | Kd [8]: 298 nM | Kd (c1d1_b10disulf): 100 nM | fold improvement of KD over c1d1 N386D (c1d1_b10disulf): 2 fold | Kd (c1d1_N386D [9]): 200 nM | Kd (c1d1_N386D [10]): 139 nM | fold worse KD than core gp120 (c1d1_N386D [11]): 35 to 50 fold | Kd [12]: 3.9 nM | Kd (eOD_T257S_S375W): 90 nM | Kd (eOD_L260F_N276D): 11.9 nM | Kd (eOD_N276D): 27.8 nM | Kd (eOD_T257S_L260F_S375W): 8.6 nM | Kd (eOD_L260F): 14.3 nM

b12 IgG (antibody)
fold improvement of KD over OD (386) (c1d1_N386D [13]): 28 fold
